Results on 13 sequences are retold here after the DeepSol protein solubility set.

This data set is described as follows: soluble on expression in E. coli; label from the status in PepcDB or PDB records.
Take “MGSDKIHHHHHHMIKNQWYVVLSSRELKKGQLIGVTRFGEKLAFWRDSNGKVHCISDICCHRGASISHGKVLSNGERVMCPFHGFEYDSQGRVRTIPANGRNTPVPENFRVKSYPTYELADFIWIWYGDREPEKPPKYFDDITDELVYTEFKEVWNVHYSRAIENQLDPIHLPFVHYNTIGRGNRTVVDGPIVEWKDDEMFYFYVFNRIDDGTPARKPEEMDPKRKSKVYLEFKFPNIWQNHISEKIRVTAAFTPIDDDHTMIYLRFYVGLTGIKFLDKLIAVLGKPFNKIVLHQDKRVVETQIPKRSELRMGENLIPGDAPILEYRKKREALKSMQQNNRVK”: the “soluble on expression in E. coli” value is “not soluble”.

For “MGSDKIHHHHHHMIKVEDKSRCCGCEACVSSCPLQCIELVKDKEGFMYPQVDTARCIDCGKCEKACPELVEAKGSGGVTVYAAVNPDKEARLASSSGGIFTLLAESVLAENGVVFGARFDKDWNVIHDYTETKEGLEAFRGSKYVQSRTGETFKQAEQFLKEGRKVLFSGTPCQIMGLKRYLHKEYDNLLAVDFVCHGVPSPLVWRKYIEETLVRQDEKIQFRPTLNHLFLDEMPLIEGISFRNKCLGWKKYSFALILSKVTTAGEKNTVSLSRIFYDNAYMKAFLANLSLRPACYRCPAKSGKSGSDITLGDFWGIEKIAPELDDDRGCSLLIINNPKVRDELRKKGCLLAEFPISEILPYNLSTAYSVSMPNNRKFFWFMFDKAGFHKALMLATSTTFPIRALRKLFRLI”, the “soluble on expression in E. coli” value is on record as “not soluble”.

Regarding “MGSDKIHHHHHHMINLFLYCRAGYEKDCAAEIQQRAAELNVGGFVKTNRNDGYVIFQCFQVGDADLLAEQIELDSLIFTRQMFAANELLKDLPEGDRVTPIVDALAKVHRAGELRVETPDTNEAKELSTFCRKLTVPLRQALKRSGALLEKENPKRPIIHVCFVGPGTAYVGYSLSHNSSPYFMGIPRLKMASDAPSRSTLKLDEAFIHFIPKSEQEQRLRSGMNSVDLGACPGGWTYQLVRRGMFVAAVDNGPMAQNLMDTGQVRHYQADGFRFEPPKKNIYWLVCDMVEKPSRVAELMEAWAINGWFKEAIFNLKLPMKSRYKEVSTILATMQEVLRENGIDDFHLACKHLYHDRDEVTVHLWLKPSVGFNFG”, the “soluble on expression in E. coli” value was “not soluble”.

“MGSDKIHHHHHHMINSGNGTDYESMRFDRRGQAEAFDAIGDRYDEAFPHKEGQVSVGEWLIGSLPPRSRVLDLGCGTGMPTARQLTDAGFDVVGVDLSGGMVELARAYVPGATFHQLDVADLRPGGSRDLGRFDAVAAFFSLLMLPRPEIPLALLTVRHLLVPGGLFALAMVEADVDDFSIPFVGHTIRVSGYLREDLHTVIETAGFEIVKEFSYTYAPSVADVPPEEQVFLCCRRRG”: the “soluble on expression in E. coli” value is reported as “not soluble”.

On to “MGSDKIHHHHHHMINSHQTQPLLRLENIEKSYGSHRILNKVSFCLYPGEITALIGDNGAGKSTLVQIISGYIQADKGNIYWQEQPLCYSNQYNAPFEMRRLGIQIVHQQLALIDELSIWRNFFLGNEINKKIGPFKFLNIRLMQHIASQSLQSFGLVCLPNIDLPVKKLSGGERQMLVVCRAKYFNAKLLILDEPTSALSPAQADKVLQIIKNIAQAGIAIVFITHNPAHIQNTAHKVIKLSCGTIEIMELTNTLIKG”, for which the “soluble on expression in E. coli” value is given as “not soluble”.

Turning to “MGSDKIHHHHHHMIQSYPVERSRTIQTRLVLPPDTNHLGTIFGGKVLAYIDEIAALTAMKHANSAVVTASIDSVDFKSSATVGDALELEGFVTHTGRTSMEVYVRVHSNNLLTGERTLTTESFLTMVAVDESGKPKPVPQVEPQTEEEKRLYETAPARKENRKKRAALR”, the “soluble on expression in E. coli” value is listed as “soluble”.

Regarding “MGSDKIHHHHHHMIRLDNISKQNGHQILFIEASMGVQKGEKVGLVGPNGAGKTTLFRMITGQEQPDDGIVSIDAGMRIGYFSQDVGEMSGQSAVAAVMDGVGPVSALAAEMATLEAAMVDPDQADQLDAVMERYGEVLERFQELDGYALEARAREVLAGLSFSQERMDADVGLLSGGWKMRVALARILLMRPDGMLLDEPSNHLDLESLIWLESFLKNYDGALLMTSHDRAFMNRIIGKVIEIDAGSLITYSGDLDFYDQQRALSEAQRQAQYERQQAMLAKEIKFIEKFKARASHAAQVQSRVKKLDKIERVEAPRRRQTVQFEFQSPPRSGEDVISLRGVHKGYGERPIYQDLDFLVRRKERWAVLGANGAGKSTLLKLVAGDTKPDQGVVNIGASVKMGYFAQHSMDLLDGEETIFESLERSFPQAGQGALRTLAGCFGFSGDDVEKPCRVLSGGEKARLVMAKMLFDPPNLLVLDEPTNHLDMVTKEMLVASLADFEGTMLFVSHDRHFLAALSNRVLELTPEGIHQYGGGYTEYVARTGQEAPGLHPGG”, the “soluble on expression in E. coli” value is listed as “not soluble”.

“MGSDKIHHHHHHMIRREDYQYLRKLNDFRYFSIEQFDKIVGQMEFRKAKKDHILFFEGDKRDKLFLVTSGYFKVEQSDQSGTFMYTDFIRHGTIFPYGGLFTDDYYHFSVVAMTDVTYFYFPVDLFEDYSLENRLQMKHLYSKMSKLLELHELRVRNLITSSASSRVIQSLAILLVEMGKDSDTLPFQLTTTDIAQISGTTRETVSHVLRDLKKQELITIKGKYLTYLDKDYFLQYTK”: the “soluble on expression in E. coli” value was “not soluble”.

As to “MGSDKIHHHHHHMITHIRVASQQLEQPRFESPKELVSWMGAIQAQEYEMAKWAIGIRLRSSSLEKVNEALYKGDILRTHVMRPTWHFVAAEDIRWMLMLSSERIKAAVMSYAKGHFGKIEKTLFTRYLDQIGKILEGYKSLTKQEVTTELQKSGILPTIDHVNLFLTWGEVEGIVCSGIDKGKKTTYALLDERVPPTRELCREEALARLASRYFQSHSPAQLQDFVWWSGLTATECRLAINLIKTELITETFDSREYFIHQSWKGKNESKPVLRLLPAFDEYLISYKNRTDVLPLEHHPKAFNRFGTFYPVILYNGKIIGNWSRSIKKNTIQIEMDFFEKKPRIPVKLIQQAEAQIDAFYRGLSHRPALQCREK”, the “soluble on expression in E. coli” value is recorded as “not soluble”.

Turning to “MGSDKIHHHHHHMITHQDLKQLQSLTKVPALSILLPTHRTSPDNKQDPILVKNLVSEATKRLDKEFTSRQLEPLLKQLETLVSEIDYPHTLDGLALYVSHDFAKLYYLPFPVPARVVIDQTFATRDLVYGRHREHRYWVLLLSQASTRLLAGTGETLEEVNDENFPMQMTGPGATTPLPYETDSSYRDDRYRRFFQQVNSALTLYENDSLPLIVGGVERQISFFQEVSQNTQAMSPRGYAYAGTLRGNFDRATIHELTPQVWSIMQSVQEAQQAEALQALDDAMGTQSVVSTIGEVWRLAHEGRGKLLLVEKNYHVPAILTEDGRFELVDQPGGTDVMDDAVDEIIEVVLAKGGKVAIVDDEVLSIYQRIALIFRY”, the “soluble on expression in E. coli” value is “not soluble”.

“MGSDKIHHHHHHMITSDELTENLSPFELSLFLEKKLHEENHNLETLLNAGRGNPNWTAPTPREAFFLLGQFATKETLREGSEQTAGMIQPSFGRTQRFLNFLAENPSKGATFLQEIWTAEHNYFGMDKEMWLDAMLDYVIGDNYPNPVRCLKACEQPIKAYLNQELFSSEAQPFDIFAVEGGTAGICYLFDTLANNYLLEKGDRIALLLPTFAPYLEIPELPRYDFDVVKIKAEQMIIDGKTTYQYSNKEIDKLKDPSIKAVFVVNPSNPTANAMGKPTIEQIKQISAVDNPKLMILTDDVYGTFVPAFRSLFTELPYNTACIYSYSKYFGATGWRVGTIAVSQENIFDQLLKELPVARKMELQARYATLNADTSQINFISRLVADSRDIALNHAAGLSSIQQAMMALFSLYALLKDGQAYKDEVMDICHTREKLLFRTLGIEEPLASLNTAYYCEINFRDWTEKRYGPEFSSYLTKSWTITKVLTSLAEKEKLMLLKADAFGSDKWSVRISLANLATNQYSEVGKRMIRLSEHIKEEWLRQKRQAIK”: the “soluble on expression in E. coli” value is given as “not soluble”.

Take “MGSDKIHHHHHHMIVGGLWMHLNEGSTPMDKYIEITAQKSRMYLLPDSSKVWMQPGSSIRFAEDFKKHRNVWLKGNSLFEVHKNMGRKFRVYIDKAFIEVKGTCFLIKQNNPSANEITLFNGSIEFNVESTQHKIEMKPLQELVYNPADAGTQLRQIENIEWQNGRYNFTQFNLEHLTRIINQMYGSRIIISDKVNKNCAFTGSIRYDESLEDVIDKICFSLNLRKKEINHEIIIYN”: the “soluble on expression in E. coli” value is given as “not soluble”.

In the case of “MGSDKIHHHHHHMIVIEDVYKRYKTDHGPGKWILQGVNLTIPRNVNVGLIGSNGAGKSTLLRIIGGIDHPNKGKVERRCRLSWPMGQGGLEPTLTGRQNAKFVCRLHGHQDDLPERLIFIQDFSGLKDAFDEPVNTYSSGMRSRLQFAMSLAFDFDIYISDEVTAAGDAAFRDKAAAAFKGMTNRAGLIMVAHSESTLRQFCEAGILLYQGKAQWFDKIEEAFKAYKDTVQK”, the “soluble on expression in E. coli” value was “not soluble”.
